Results published in patent publication US20030049702A1 (BURNHAM INSTITUTE, published 2003).

Tests used:
Test in all cases: GST pull-down of in vitro translated 35S-labeled protein, autoradiography; '-' = no interaction
[1] = molecular target: T1, RIP (in vitro translated, 35S-labeled) (human, UniProt Q13546 1-671, limits assumed)
T1 sequence (looked up): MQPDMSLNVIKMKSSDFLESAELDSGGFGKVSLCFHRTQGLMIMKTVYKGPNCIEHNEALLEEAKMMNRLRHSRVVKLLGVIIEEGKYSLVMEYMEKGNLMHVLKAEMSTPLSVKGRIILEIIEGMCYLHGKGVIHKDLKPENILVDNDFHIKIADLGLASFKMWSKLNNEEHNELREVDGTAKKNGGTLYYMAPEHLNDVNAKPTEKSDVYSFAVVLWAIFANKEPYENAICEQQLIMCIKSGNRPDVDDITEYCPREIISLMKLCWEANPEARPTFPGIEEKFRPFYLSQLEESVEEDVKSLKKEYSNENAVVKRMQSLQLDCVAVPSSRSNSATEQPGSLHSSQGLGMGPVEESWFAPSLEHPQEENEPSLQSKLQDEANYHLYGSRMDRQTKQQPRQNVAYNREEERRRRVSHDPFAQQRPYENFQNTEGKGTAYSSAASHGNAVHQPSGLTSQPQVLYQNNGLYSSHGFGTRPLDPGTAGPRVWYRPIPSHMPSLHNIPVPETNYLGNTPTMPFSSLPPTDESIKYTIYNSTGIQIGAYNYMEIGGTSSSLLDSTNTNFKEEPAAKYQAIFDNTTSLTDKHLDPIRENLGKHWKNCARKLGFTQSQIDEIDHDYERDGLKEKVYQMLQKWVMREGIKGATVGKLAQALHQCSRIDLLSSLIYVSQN

[2] = molecular target: c-Flip (in vitro translated, 35S-labeled) (human, UniProt O15519 1-480)
[3] = molecular target: T2, FADD (in vitro translated, 35S-labeled) (human, UniProt Q13158 1-208)
T2 sequence (looked up): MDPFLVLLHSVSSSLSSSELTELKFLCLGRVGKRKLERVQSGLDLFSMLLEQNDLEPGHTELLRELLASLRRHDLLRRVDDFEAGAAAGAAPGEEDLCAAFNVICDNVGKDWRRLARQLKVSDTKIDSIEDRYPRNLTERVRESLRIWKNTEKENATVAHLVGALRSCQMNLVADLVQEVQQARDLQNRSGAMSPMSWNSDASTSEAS

[4] = molecular target: Dr-5 (in vitro translated, 35S-labeled) (human, UniProt O14763 1-440, limits assumed)
[5] = molecular target: RAIDD (in vitro translated, 35S-labeled) (human, UniProt P78560 1-199)
[6] = molecular target: T3, Fas (in vitro translated, 35S-labeled) (human, UniProt P25445 1-335, limits assumed)
T3 construct: also called Fas [CD95]
T3 sequence (looked up): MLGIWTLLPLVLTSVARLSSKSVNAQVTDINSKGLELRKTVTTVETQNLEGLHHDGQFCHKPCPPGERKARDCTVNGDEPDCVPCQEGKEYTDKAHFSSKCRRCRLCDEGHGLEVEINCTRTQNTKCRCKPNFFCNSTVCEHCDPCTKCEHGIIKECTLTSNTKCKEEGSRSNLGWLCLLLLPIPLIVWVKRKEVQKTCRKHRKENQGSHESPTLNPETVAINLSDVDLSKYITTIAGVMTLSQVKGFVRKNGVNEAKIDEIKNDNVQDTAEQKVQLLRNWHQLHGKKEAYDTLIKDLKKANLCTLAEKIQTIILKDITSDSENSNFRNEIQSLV

[7] = molecular target: T4, TNF-RI (in vitro translated, 35S-labeled) (human, UniProt P19438 1-455, limits assumed)
T4 construct: also called TNFR1
T4 sequence (looked up): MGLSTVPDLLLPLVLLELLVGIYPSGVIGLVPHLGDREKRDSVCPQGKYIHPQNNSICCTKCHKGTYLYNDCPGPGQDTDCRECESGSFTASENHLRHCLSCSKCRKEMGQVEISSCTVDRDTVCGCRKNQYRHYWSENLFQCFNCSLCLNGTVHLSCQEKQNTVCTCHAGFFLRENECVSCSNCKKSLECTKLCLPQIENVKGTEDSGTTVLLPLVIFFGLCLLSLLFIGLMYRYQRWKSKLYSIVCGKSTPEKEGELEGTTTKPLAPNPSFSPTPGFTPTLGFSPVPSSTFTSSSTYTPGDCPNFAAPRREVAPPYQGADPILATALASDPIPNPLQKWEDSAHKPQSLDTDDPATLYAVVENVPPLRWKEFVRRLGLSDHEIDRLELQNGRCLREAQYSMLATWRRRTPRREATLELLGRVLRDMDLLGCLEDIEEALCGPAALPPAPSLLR

[8] = molecular target: Dr-4 (in vitro translated, 35S-labeled) (human, UniProt O00220 1-468, limits assumed)

Measured: binding result

Chain of c-Flip (in vitro translated, 35S-labeled) (O15519 whole entry): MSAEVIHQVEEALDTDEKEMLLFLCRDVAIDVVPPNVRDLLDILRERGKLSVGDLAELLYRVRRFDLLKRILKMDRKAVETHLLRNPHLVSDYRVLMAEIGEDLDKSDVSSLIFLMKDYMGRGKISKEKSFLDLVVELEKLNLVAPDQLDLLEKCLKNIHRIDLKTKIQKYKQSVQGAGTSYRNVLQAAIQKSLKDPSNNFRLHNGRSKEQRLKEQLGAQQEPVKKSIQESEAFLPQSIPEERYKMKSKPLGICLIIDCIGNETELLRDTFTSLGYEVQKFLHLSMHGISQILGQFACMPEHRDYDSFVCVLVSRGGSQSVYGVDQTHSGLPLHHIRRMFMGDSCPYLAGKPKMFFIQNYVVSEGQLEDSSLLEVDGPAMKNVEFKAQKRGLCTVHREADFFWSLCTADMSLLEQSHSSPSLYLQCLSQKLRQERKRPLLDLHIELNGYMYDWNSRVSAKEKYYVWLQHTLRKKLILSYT
Chain of RAIDD (in vitro translated, 35S-labeled) (P78560 whole entry): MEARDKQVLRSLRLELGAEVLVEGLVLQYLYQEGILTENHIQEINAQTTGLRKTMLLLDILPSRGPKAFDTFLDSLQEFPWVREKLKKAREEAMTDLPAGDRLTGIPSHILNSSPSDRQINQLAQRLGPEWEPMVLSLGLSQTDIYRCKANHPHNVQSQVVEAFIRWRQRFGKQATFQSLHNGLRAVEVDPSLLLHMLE

B1: GST-CD40 (cytosolic domain) (other, UniProt P25942 216-277, looked up)
chain: KKVAKKPTNKAPHPKQEPQEINFPDDLPGSNTAAPVQETLHGCQPVTQEDGKESRISVQERQ
notes: domain: cytosolic domain; Control fusion protein; not shown: glutathione S-transferase
no binding: all assays above
